# Data reported in US20250002610A1 (Genmab, published 2025).
# T1: His-tagged recombinant Human FAPα (Acro Biosystems, Cat #FAP-H5244-100ug) (human, UniProt Q12884 26-760)
# T1 construct: Bought reagent; not shown: His tag
# T1 sequence (looked up): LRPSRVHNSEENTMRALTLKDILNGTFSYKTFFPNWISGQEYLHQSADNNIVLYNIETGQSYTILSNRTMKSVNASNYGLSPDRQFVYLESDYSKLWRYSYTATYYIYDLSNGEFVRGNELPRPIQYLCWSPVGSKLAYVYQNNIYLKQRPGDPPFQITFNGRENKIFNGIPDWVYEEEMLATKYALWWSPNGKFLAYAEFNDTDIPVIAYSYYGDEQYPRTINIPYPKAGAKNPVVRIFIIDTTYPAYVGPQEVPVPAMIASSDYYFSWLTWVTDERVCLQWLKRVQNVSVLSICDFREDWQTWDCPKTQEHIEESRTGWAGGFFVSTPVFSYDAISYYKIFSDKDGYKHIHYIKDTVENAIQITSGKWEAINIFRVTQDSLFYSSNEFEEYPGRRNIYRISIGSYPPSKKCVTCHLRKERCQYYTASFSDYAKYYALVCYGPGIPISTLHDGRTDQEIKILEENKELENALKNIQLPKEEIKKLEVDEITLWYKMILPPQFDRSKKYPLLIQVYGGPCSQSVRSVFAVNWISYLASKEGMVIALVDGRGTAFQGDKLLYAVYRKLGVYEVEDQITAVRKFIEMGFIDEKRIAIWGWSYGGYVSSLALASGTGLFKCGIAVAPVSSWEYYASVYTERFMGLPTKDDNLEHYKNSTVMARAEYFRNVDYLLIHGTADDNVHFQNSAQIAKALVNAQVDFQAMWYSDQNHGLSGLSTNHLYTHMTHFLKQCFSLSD
# T2: His-tagged recombinant Cynomolgus FAPα (Acro Biosystems, Cat #FAP-C52H3-100ug) (cynomolgus monkey, UniProt A0A2K5VGF4 26-760)
# T2 construct: Bought reagent; also called recombinant cynomolgus monkey FAPα; not shown: His tag of the vendor's construct (Acro Biosystems FAP-C52H3)
# T2 sequence: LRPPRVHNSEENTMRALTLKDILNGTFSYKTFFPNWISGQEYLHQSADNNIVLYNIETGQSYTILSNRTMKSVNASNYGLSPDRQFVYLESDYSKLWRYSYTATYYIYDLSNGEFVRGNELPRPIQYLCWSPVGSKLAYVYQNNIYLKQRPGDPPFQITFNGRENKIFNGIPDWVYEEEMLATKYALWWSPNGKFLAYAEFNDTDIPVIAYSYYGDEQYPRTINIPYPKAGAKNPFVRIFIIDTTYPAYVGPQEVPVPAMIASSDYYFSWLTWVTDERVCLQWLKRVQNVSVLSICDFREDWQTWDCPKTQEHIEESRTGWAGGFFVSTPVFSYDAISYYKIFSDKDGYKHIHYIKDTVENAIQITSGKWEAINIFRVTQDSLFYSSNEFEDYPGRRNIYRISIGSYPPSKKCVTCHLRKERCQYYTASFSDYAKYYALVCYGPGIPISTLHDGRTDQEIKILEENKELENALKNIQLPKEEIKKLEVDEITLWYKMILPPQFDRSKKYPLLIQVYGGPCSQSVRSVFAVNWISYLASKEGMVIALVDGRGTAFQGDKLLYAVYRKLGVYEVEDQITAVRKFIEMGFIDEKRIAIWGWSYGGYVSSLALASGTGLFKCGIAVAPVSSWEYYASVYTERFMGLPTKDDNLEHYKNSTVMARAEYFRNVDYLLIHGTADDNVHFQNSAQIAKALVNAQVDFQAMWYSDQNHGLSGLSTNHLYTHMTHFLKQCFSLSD
# B1: BisG1-b12-FERL/DR4-FERR (bispecific antibody, human IgG1, kappa, lambda)
# heavy 1: QVQLVQSGAEVKKPGASVKVSCQASGYRFSNFVIHWVRQAPGQRFEWMGWINPYNGNKEFSAKFQDRVTFTADTSANTAYMELRSLRSADTAVYYCARVGPYSWDDSPQDNYYMDVWGKGTTVIVSSASTKGPSVFPLAPSSKSTSGGTAALGCLVKDYFPEPVTVSWNSGALTSGVHTFPAVLQSSGLYSLSSVVTVPSSSLGTQTYICNVNHKPSNTKVDKRVEPKSCDKTHTCPPCPAPEFERGPSVFLFPPKPKDTLMISRTPEVTCVVVDVSHEDPEVKFNWYVDGVEVHNAKTKPREEQYNSTYRVVSVLTVLHQDWLNGKEYKCKVSNKALPAPIEKTISKAKGQPREPQVYTLPPSREEMTKNQVSLTCLVKGFYPSDIAVEWESNGQPENNYKTTPPVLDSDGSFLLYSKLTVDKSRWQQGNVFSCSVMHEALHNHYTQKSLSLSPG
# light 1: EIVLTQSPGTLSLSPGERATFSCRSSHSIRSRRVAWYQHKPGQAPRLVIHGVSNRASGISDRFSGSGSGTDFTLTITRVEPEDFALYYCQVYGASSYTFGQGTKLERKRTVAAPSVFIFPPSDEQLKSGTASVVCLLNNFYPREAKVQWKVDNALQSGNSQESVTEQDSKDSTYSLSSTLTLSKADYEKHKVYACEVTHQGLSSPVTKSFNRGEC
# heavy 2: QVQLQESGPGLVKPSGTLSLTCAVSGGSISSYSWWSWIRQPPGKGLEWIGELYHSGSTNYNPSLKSRVTISVDKSKNQFSLKLRSVTAADTAVYYCVRGVATIDYWGQGTLVTVSSASTKGPSVFPLAPSSKSTSGGTAALGCLVKDYFPEPVTVSWNSGALTSGVHTFPAVLQSSGLYSLSSVVTVPSSSLGTQTYICNVNHKPSNTKVDKRVEPKSCDKTHTCPPCPAPEFERGPSVFLFPPKPKDTLMISRTPEVTCVVVDVSHEDPEVKFNWYVDGVEVHNAKTKPREEQYNSTYRVVSVLTVLHQDWLNGKEYKCKVSNKALPAPIEKTISKAKGQPREPQVYTLPPSREEMTKNQVSLTCLVKGFYPSDIAVEWESNGQPENNYKTTPPVLDSDGSFFLYSRLTVDKSRWQQGNVFSCSVMHEALHNHYTQKSLSLSPG
# light 2: QSALTQPPSASGSPGQSVTISCTGTSSDVGGYNFVSWYQQDPGKAPKLLIYEVTKRPSGVPDRFSGSKSGNTASLTVSGLQAEDEADYYCSSYAGSNNVMFGGGTKLTVLGQPKAAPSVTLFPPSSEELQANKATLVCLISDFYPGAVTVAWKADSSPVKAGVETTTPSKQSNNKYAASSYLSLTPEQWKSHRSYSCQVTHEGSTVEKTVAPTECS
# notes: Fab-arm exchange of IgG1-b12-FERL and IgG1-DR4-FERR; also called bsIgG1-ctrl-FERLxDR4-FERR
# Experiments:
# [1] = molecular target: T1, His-tagged recombinant Human FAPα (Acro …); assay: BLI, antigen immobilized on AR2G sensors
# Method: (§1) Experiments were carried out while shaking at 1,000 RPM at 30° C. Amine Reactive 2nd Generation (AR2G) biosensors (Sartorius, Cat #18-5092) were activated by reaction with 20 mM EDC (N-(3-Dimethylaminopropyl)-N′-ethylcarbodiimide hydrochloride) (Sigma-Aldrich, Cat #03449) and 10 mM s-NHS (N-hydroxysulfosuccinimide sodium salt) (Sigma-Aldrich, Cat #56485) for 300 s. The activated AR2G sensors were loaded with 2.5 μg/mL His-tagged recombinant Human FAPα (Acro Biosystems, Cat #FAP-H5244-100ug) in 10 mM Sodium Acetate pH 5.0 (Sartorius, Cat #18-1069) or 2.5 μg/mL His-tagged recombinant Cynomolgus FAPα (Acro Biosystems, Cat #FAP-C52H3-100ug) in 10 mM Sodium Acetate pH 5.0 for 600 s and quenched with 1 M ethanolamine pH 8.5 (Sartorius Cat #18-1071) for 300 s. After a baseline measurement in Sample Diluent (1000 s; Sartorius, Cat #18-1104), the association (100 s) and dissociation (4,000 s) of functionally monovalent antibody was determined using a concentration range of 0.78-800 nM with two-fold dilution steps in Sample Diluent. The molecular mass of the antibodies used for the calculations was calculated from the sequences.
# (§2) The Y-axis was aligned to the last 10 s of the baseline; Interstep Correction alignment to dissociation and Savitzky-Golay filtering were applied. Data traces with a response <0.05 nm were excluded from analysis. […]
# [2] = molecular target: T2, His-tagged recombinant Cynomolgus FAPα …; assay: BLI, antigen immobilized on AR2G sensors
# Method: as §1, §2
binder,measurement,setting,value
B1,binding result,[1],no binding (tested: 800 nM)
same,binding result,[2],no binding (tested: 800 nM)
